Measured values: IntAct's records for PubMed 28691929

B1: E3 ubiquitin-protein ligase RFWD3 (Homo sapiens), Q6PCD5 (parent)
chain: MAHEAMEYDVQVQLNHAEQQPAPAGMASSQGGPALLQPVPADVVSSQGVPSILQPAPAEVISSQATPPLLQPAPQLSVDLTEVEVLGEDTVENINPRTSEQHRQGSDGNHTIPASSLHSMTNFISGLQRLHGMLEFLRPSSSNHSVGPMRTRRRVSASRRARAGGSQRTDSARLRAPLDAYFQVSRTQPDLPATTYDSETRNPVSEELQVSSSSDSDSDSSAEYGGVVDQAEESGAVILEEQLAGVSAEQEVTCIDGGKTLPKQPSPQKSEPLLPSASMDEEEGDTCTICLEQWTNAGDHRLSALRCGHLFGYRCISTWLKGQVRKCPQCNKKARHSDIVVLYARTLRALDTSEQERMKSSLLKEQMLRKQAELESAQCRLQLQVLTDKCTRLQRRVQDLQKLTSHQSQNLQQPRGSQAWVLSCSPSSQGQHKHKYHFQKTFTVSQAGNCRIMAYCDALSCLVISQPSPQASFLPGFGVKMLSTANMKSSQYIPMHGKQIRGLAFSSYLRGLLLSASLDNTIKLTSLETNTVVQTYNAGRPVWSCCWCLDEANYIYAGLANGSILVYDVRNTSSHVQELVAQKARCPLVSLSYMPRAASAAFPYGGVLAGTLEDASFWEQKMDFSHWPHVLPLEPGGCIDFQTENSSRHCLVTYRPDKNHTTIRSVLMEMSYRLDDTGNPICSCQPVHTFFGGPTCKLLTKNAIFQSPENDGNILVCTGDEAANSALLWDAASGSLLQDLQTDQPVLDICPFEVNRNSYLATLTEKMVHIYKWE

Variants of: B1
Settings: with rfa2_human RPA2, P15927
Chain of rfa2_human RPA2, P15927 (P15927 whole entry): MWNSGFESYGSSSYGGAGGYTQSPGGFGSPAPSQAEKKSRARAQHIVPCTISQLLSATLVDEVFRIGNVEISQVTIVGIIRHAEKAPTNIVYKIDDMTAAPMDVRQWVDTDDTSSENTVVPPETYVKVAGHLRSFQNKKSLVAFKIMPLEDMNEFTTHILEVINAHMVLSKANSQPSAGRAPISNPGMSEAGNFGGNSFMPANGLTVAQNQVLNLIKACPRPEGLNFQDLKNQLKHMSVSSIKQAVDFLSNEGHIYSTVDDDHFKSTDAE

Row | Variant | effect of a mutation on the interaction
1 | I639K | decreasing interaction strength

Variants of: B1
Settings: with rfa2_human RPA2, P15927
Remark: another data set of the same source

Row | Variant | effect of a mutation on the interaction
2 | I639K | disrupting interaction strength
